Columns and labels:
β-lactoglobulin (bovine) [1] = target: β-lactoglobulin (bovine) (UniProt P02754); test: ITC; LF (0.25 mM, syringe) injected into βLG (0.1 mM, cell); 10 mM MES pH 5.5, 2.5 mM added NaCl, 25 °C; fitted with PyTC
β-lactoglobulin (bovine) [2] = target: β-lactoglobulin (bovine) (UniProt P02754); test: ITC; LF (0.25 mM, syringe) injected into βLG (0.1 mM, cell); 10 mM MES pH 5.5, 20 mM added NaCl, 25 °C; fitted with PyTC
β-lactoglobulin (bovine) [3] = target: β-lactoglobulin (bovine) (UniProt P02754); test: ITC; LF (0.25 mM, syringe) injected into βLG (0.1 mM, cell); 10 mM MES pH 5.5, no added NaCl, 25 °C; fitted with PyTC
β-lactoglobulin (bovine) [4] = target: β-lactoglobulin (bovine) (UniProt P02754); test: ITC; LF (0.25 mM, syringe) injected into βLG (0.1 mM, cell); 10 mM MES pH 5.5, 15 mM added NaCl, 25 °C; fitted with PyTC
β-lactoglobulin (bovine) [5] = target: β-lactoglobulin (bovine) (UniProt P02754); test: ITC; LF (0.25 mM, syringe) injected into βLG (0.1 mM, cell); 10 mM MES pH 5.5, 5 mM added NaCl, 25 °C; fitted with PyTC
β-lactoglobulin (bovine) [6] = target: β-lactoglobulin (bovine) (UniProt P02754); test: co-sedimentation + other: turbidity; LF-βLG mixtures (total 0.55 mM) prepared at 0, 100, 200 or 400 mM NaCl and desalted by dialysis (24 h) against 10 mM MES pH 5.5, room temperature; coacervate yield after centrifugation at 28,000 g and HPLC of the supernatant

- Ka (β-lactoglobulin (bovine) [1]): 972000 M⁻¹
- dH (β-lactoglobulin (bovine) [1]): -24.7 kcal/mol
- Ka (β-lactoglobulin (bovine) [2]): 33200 M⁻¹
- dH (β-lactoglobulin (bovine) [2]): -8.94 kcal/mol
- Ka (β-lactoglobulin (bovine) [3]): 421000 M⁻¹
- dH (β-lactoglobulin (bovine) [3]): -18.8 kcal/mol
- Ka (β-lactoglobulin (bovine) [4]): 84700 M⁻¹
- dH (β-lactoglobulin (bovine) [4]): -12.1 kcal/mol
- Ka (β-lactoglobulin (bovine) [5]): 275000 M⁻¹
- dH (β-lactoglobulin (bovine) [5]): -14.6 kcal/mol
- coacervate yield (β-lactoglobulin (bovine) [6]): 55 to 65%
Substance: lactoferrin (natural protein)
